# Measured values from the DeepSol protein solubility set.
# Test: soluble on expression in E. coli; label from the status in PepcDB or PDB records
row,Sequence,soluble on expression in E. coli
1,MSVKKKTQVRTGKMVRELMLADEDVNASLIMVYSENGVNAEIKIEGLTPKCNEELFLSGNVDWNKSVIYKIVDFTGNAEVGKVTLTAMNKNNVSLEIERVMWSKENKEAAEQEETQVEAAPKKEVVVEAPKAITPAPKPVTRVETPAMAPKPTPVPTPKPVSVEAAVELVTPAPVKKAVPTPVTKQETAPVAPAKPKQPALTETNSKLQENYVKLVKKTIEVCQDYELGIDIDDSIESLKEELQSQGISVTFDKEIMDVVNRLRSLQDKGIKVEKVLNLL,not soluble
2,MLSNDILRSVRYILKANNNDLVRILALGNVEATAEQIAVWLRKEDEEGFQRCPDIVLSSFLNGLIYEKRGKDESAPALEPERRINNNIVLKKLRIAFSLKTDDILAILTEQQFRVSMPEITAMMRAPDHKNFRECGDQFLRYFLRGLAARQHVKKG,soluble
3,MGRCYNNIVIDASIEAVWQQIGNFHDMSWAKGVITSLVKVGPASGTEVGAKRILNDAIHETLVSLDSSNYTFTYSIDDGPDAIAKSAVDNYLGMVNLSESSTGVLVEWSSSFTSDNEKAVTEFCDPIYMALLGALKNSLRLEHHHHHH,soluble
4,MDGHHVDARPVEPVQGERDGRAGGSGMSLIKSVRHWLRRHPTVATEPATPPARGAHRGQVDHVILFDGTCSSLEAGHETNVGLIFKLLREERRSVQRTIYYEPGLQWGGWLRIGDLVQGKGLNRQIRRAYGYLASHYQPGDRIFLFGYSRGAYAARSLAGVIDRVGLLRREEATERNVRLAWRHYEQGSIRPHARAFSRRHCHARVEIEMVGIFDTVKALGLRLPLLWRLSEDRHAFHSHKLGRTVRHGFHALALDETRTVFEPVLWDYPYHGQIVEQAWFRGGHGDIGGQLAGGRHGSRLLSNIPLVWMLERATHCGLQLPEGWRARHPCDVTAPMTSMYAGWGKIFLSRQRRPTLRCPTEYIHPTALRPEPRRRKWRLRWGGAPEGEPTQGLEHHHHHH,not soluble
5,MSDEIARLVADVFELAGLLRRSGEVVAAREGHTQARWQLLSVVSDRALTVPQAARRLGVTRQGVQRVANDLVVCGLAELRHNPDHRTSPLLVLTENGRRVLQAITERAIVVNNRLADAVDPAALQATRDSLRRMIVALKAERP,not soluble
6,MKVIAVNGGPRKQWNTATLLHKALEGAQSAGAETDLFHLYDLNYKGCISCFGCKRKNSSRIGHCVLKDELTPLLEEVLKCDALLLGSPIYFGNVTGAMRSFLERLFFSLLSYNEGQRTVFPRKVASGFIYTMNVPEDFLPQLGYEAVFKANARSLELLNGPSEYLLATDTYQFDNYSNYEASRFNEQHKAQVRQERFPQDCRQAFDLGAR,not soluble
7,MSLQTSPDMFINRELSWLRFNSRVLDQCSKNLPLLEKLKFIAIYCTNLDEFYMIRVAGLKQLFSAGVNASSSDEMTPLQQLKAIRKYLHQEKELLERYFNEITSELEKENLFIKHYENLDENLKQKCDEYFFSNIFPVIVPIAVDATHPFPHLNNLSFSLAVKICDKAHPELVKFGMIRIPRVLPRFYEVSANIYVPIESIVHQHAEEIFPGYKLLASAAFRVTRNADMVIEEEEADDFMMILEQGLKLRRKGAFVRLQIQKDADEQIVEFLNTHMKIFHKDVYEYSILLNLPSLWQIAGNKTFTHLLSPLYTPKTLPPFDENLSIFDAVEKEDILIIQPFESFDPVYKFIKEASKDPEVISIRMTLYRVEKNSNIVQALIDAASDGKQVTVMVELKARFDEENNLHWAKALENAGAHVIYGITGFKVHAKVSQVIRKQGDKLKFYMHLSTGNYNASSAKIYTDVSYFTSKAEFARDTTSFFHILSGFSKNRRLQTLSMSPNQIKEKVLEMIRIETSKKNEGVIVAKMNSLVDSDIIQALYEASMEGVQIDLIIRGICCLKPDEEYSKNIRVRSIIGKYLEHARVFYFKHSEPNYFISSADWMPRNLERRLELMTPIYDERSKAKLAQFLRLQLSDNVLAYELKNNGEYEKIPSSEKIIDSQQTLEEYVSKIYKTLKKDTDQSRATHLASKLFKENEGHHHHHH,soluble
8,MKSHVTDLTETLSSMEISRLEQQLTDFEAKKGSQIALLIIPTTQPETIEQYSIQVAEVWKLGRKGIDDGVLLLVAKNDRTLRIETGYGLEGVLPDALARRIIDEIIVPKFRQGHFFGGLQAGVEQIISIIEGETLPESLEHHHHHH,not soluble
9,MLKSASSLVRSFIRPQTFRLCSSSSTTQGSPSVSSDDEPVILENNPYTKEPRKSFLCSTGVELDYKNSRLLQQFVSTFSGRVYDRHITGLCDENKKKLIEAIAKSRRAGFMPIFVKDPKYTRDPKLFDPLKPIRPHSFA,not soluble
10,MSLAGCTSPANNGAGGDENGETVYRVAYVARTQSDSFAAWLANAISEEADKYDNIIIDVFDGQASDSTQNSLIENAITSNYDAIIIQPNNGEAQKSYAEQAVAAGIITITTNARIEGVQGASSVDADPYEQAKVNADVALEQIPQNANVVVLKGPPGNFHADARRDSWQKEFFDKRPDVTIVGEEIANWNKDEAMTYMETWVQANSKIDAIIAMNDNMAAGALEVVRDDSNFAGMLSYGVDGTAEAVLLIQEGVMTQTSLQSAYDLATALLDTSNKLLTGAETQIDIDIDAPVINSDNVEEYVEMHKRAGAIREGHHHHHH,soluble
11,MGSDKIHHHHHHLYINKRPIFLVHGLWNNPKLFEKLIKKINEDDYELYRPHLPHKYGKTSLKRLALDLDSKIEELVGPEIEIDIVGFSMGGLISRFWLQNHDGFLRTKRFFSIGTPHFGTYTAQMIPSFLMPGIAEMKRGSRLLSLLNNDLTSLEKVECTSFFTKWDLMSFPGWQAKLSIGESYHLPVLTHKELITNSSSLDILVKKIFKNS,not soluble
12,MITKDVKEQLIQVSGPENFDDSNAGRLVYSYDATPQYQSMPDAVIAPRNTDEISRILTICSEHRVPIVPRGSGTNLCGGTCPTEGGLVLLFKHMNQILEIDEENLTATVQPGVITLDMIRAVESKGLFYPPDPSSMKISTIGGNINENSGGLRGLKYGVTRDYVIGLEVVLANGDIIRTGGKLAKDVAGYDLTRLFVGSEGTLGIVTEAIVKLVPKPETKKTLLALYENIDAAAQTVSDIIAAKIIPATLEFLDQPTLLVIEDYAKIGLPTSAKAVLLIEQDGPFETVERDMEKIEAICKKGDAVSVQTAQTEEEAFALTEARRSALSALARLKPTTILEDATVPRSEIANMVKAINDIAAKYDISICTFGHAGDGNLHPTCTTDIRNKDEMERVEQAFAEIFEKAIELGGTITGEHGVGEMKAPYLEMKLKKEGIDAMKALKAAFDPRNILNPGKMFAKDARKR,not soluble
13,MTRRVLLLSASVLLATAGYAPEPYYNKYGGYHKALDKKHGGYEADQTGYGGHNGMSDYGNEQGAYGHYDGKYGEAGKKSGQEYYAKGDEHGHGDEAHEKGLKKNGDAYGGKKFSYFTSGSGPYGSYQKGYYGSDGYEHDDHKSKYSSHNEDNGFKKGYDGAGAGHDDKYTSYDKEDAGHKKHHDKYDIGKYGAKQGGYAKQGHEEGWKNEAQKNSYGSRENGQEYGHPYY,not soluble
14,MTQKEISIIHPRPSSIVAALYTLRDLNVDVAILHGPPGCSFKHARLLEEDGIHVVTTGLDENGFVFGGHDKLVQVINKSIELFNPKILGVVGTCASMIIGEEMHEAVLEANPDIPVIEVEVHAGYHNNTKGVIFALESALDAGIIDHKEFERQEYLEHHHHHH,not soluble
15,MAAFSVHILGCGSALPTTHHHPSSQVIDLRDKLYMIDCGEGVQRQFRHEKLHFGRLIHIFISHLHGDHCFGLPGFISTLGLLGRTGTLHVHGPEGIERFLSPILEQFCHRMPYQVEIHTIDASRHALVHEDKSVKVYSIPLSHRIPAVGYLFEEKCRARHLNKAAAEFYNIPLAEYPLIIEGSDYTTPDGRIIPNRHLTTPGTPPRRYAYCSDTEFCPSIVPIIQGVDLLYHEATFMEEDRARAKETFHSTAKEAAEIARQAGAKRLLIGHYSGRYKDVQGLLEEAQSVFKPTIAANERMRIDL,not soluble
16,MAHHHHHHMRRQTRLFSRLAVEIPNSHWLPRRLLLVRHGESEANVDRSQYSRIPDWKIPLTERGRAQALDCGRRLRNIIKNEKLYIYYSPYVRTQQTLAEVRKSLEESQVQGEREDERLREQEIGNFQPLDKMDRTWDERSNFGRSYYRFPDGESSVDVGDRVSTFFDSLFRERLELYSLSAGDPEDEDGPLNVPGEDDQNVLIISHGLLIRLFIARWFRVPLEAFETMRNPPNCSIVVLERQESARMVMTDISKKLFGSDPLLEMMKFDGKDSTKRYRHMFFSDHSGSFTPAEGV,not soluble
17,MKILHTSDWHIGKTLYGHKRYDEFEAFFSWLVETIEQEQVDVLLIAGDIFDTSTPGNRSQQLYYRFLHRVAASACRHVVIIAGNHDSPSFLSAPRELLRALDVHVTGSLSGNPADEILVLHDPKGDAELIVCAVPHLRDRDIRTAEAGESMEDKSRKLVEGIRDHYAEVINLARLQRTALSSSIPIIAMGHLFVAGGQTVEGDGVRELYVGSLAHVPAGIFPPDIDYLALGHLHVPQRVNGSSVMRYSGSPLPIGFGEADQEKSVCLIEFNRQ,not soluble
18,MGSDKIHHHHHHMMDLEGYVRRCLRKKIPENKIIEDGFKRILEIKEDVDEEFAKKFIKAILEEVKTTEKFREIDDENLKTLLKYPKSGVTMGRMGVGSRGEGDFFVHREIARIVKSTKVKAYVSAEEQDDAGIVRADAKYIVAAIDGTHSRLSDFPFLGGFHVTRAALRDIYVMGAEAVALISDVHLADDGDVGKIFDFTAGICAVSEAVNVPLIGGSTLRVGGDMVIGDRLVSAVGAIGVIKEGEPTARRNAEVGDVILMTEGSGGGTITTTALYYGWFDVIYETLNVDFIKACQNLIRSGLIKKIHAMTDVTNGGLRGDAYEISKTAKVSLIFDKEKVYKTINPKVLEMLEVLNIDPLGVSTDSLMIICPEEYADDIKKVTGAIEVGYVEEGEESYLVDGNKKIPLKPMFRESAYTPVKKVVGERKPGDFEEMKEKVRRACDEAIKKKDFVVELLKERKKKF,not soluble
19,MGSDKIHHHHHHAQEERNQGIIWSYLHGWEYGIKAGFSIGGTSPLPLPEEIRKIDSYAPGGLAISIEGNATKWFDTKWGMTVGVRLENKNMTTEATVKNYGMKIINTNGGELQGLWTGGVKTKVKNSYLTIPVVANYKVSKRWKVSAGPYVSYLIERNFSGHVYEGHLRTPDQTGSRVDFTGESIATYDFSDNLRKFQWGLQLGGEWRAFKHLNVYADLTWGLNDIFKKDFDTISFAMYPIYLNIGFGYAF,not soluble
20,MNINPFANVSLQDYLEIVQIVDSTFPIGSFNHSFGMENYLREDTVTDDKGYEEWQEAYLASQFKYGEGLVIKLVYDAMVTDNIDQVWYYDKVLTVSTQARETRQGTKMIAKQMLRLIQRLHAIPVLDDYQSKIRKGVAFGNPAIVFALYVFNKGLGCNEAIALYGYSVISTMVQNAVRAIPLGQFAGQEIVLRSFSQLEKMTQEIQELDASYLGANTPGLELAQMKHETQVFRLFMSLEHHHHHH,not soluble
21,SDMRQHEEYIADMALDPAKKLLLTASGDGCLGVFNIKRRRFELLSEPQSGDLTSVALMKYGKKVACGSSEGTIYLFNWNGFGATSDRFALRAESIDCIVPVTENLLCTSSTDGIIRAVNILPNRVVGTVGQHAGEPVEALALSHCGHFLASSGHDQRLKFWDMTQLRTVVVDDYRRRKKKGGPLRALSSKAWSTDDFFAGLREDEEDAKAPEEVVRESDDDDDDSD,soluble
